Data on 1 protein can be found in publication doi:10.1101/2022.07.04.498777 (bioRxiv, 2022).

The data set deals with the molecule itself. In words: dynamic light scattering.

B1: Peptide G37 (peptide)
peptide: SLLTEVETPIRNEWGCRCNDSSD
Take B1: the binding result is “binds”.
